Data published in patent US20210179728A1 (OSE IMMUNOTHERAPEUTICS, published 2021).
Positions count from the first letter of the chain named. In names and notes the source's numbering stands.

Legend:
[1] = target: T1, recombinant hSIRPa (Sino Biologicals, reference 11612-H08H) (human, UniProt P78324 31-370); experiment: ELISA on immobilized SIRPa-His, anti-human detection, DO 450nm [B,C, panel B table]
T1 construct: also called SIRPa-His; human SIRPa-His; not shown: His tag (histidine tail)

[2] = target: T1, recombinant hSIRPa (Sino Biologicals, …); experiment: competition ELISA on immobilized SIRPa-His; competitor biotinylated CD47-Fc at 6 ug/ml, streptavidin-peroxidase [second experiment table]
Method: (§1) Method: For competitive ELISA assay, recombinant hSIRPa (Sino Biologicals, Beijing, China; reference 11612-H08H) was immobilized on plastic at 0.5 μg/ml in carbonate buffer (pH9.2).

[3] = target: T1, recombinant hSIRPa (Sino Biologicals, …); experiment: ELISA on immobilized hSIRPa-His, anti-human IgG detection, second experiment; second experiment
Method: (§2) Method: The binding activity of the anti-SIRPa antibodies was assessed by ELISA.

[4] = target: T2, recombinant hSIRPg-His (Sino Biologicals, reference 11828-H08H) (human, UniProt Q9P1W8 29-360); experiment: BLI (Blitz); SIRPg-His on Ni-NTA biosensor, antibody at 10 ug/ml or 20 ug/ml (Example 9) [B, table A]
T2 construct: also called human SIRPg-His; not shown: His tag
Method: (§3) FIG. 8. (A) Affinity analysis by Blitz of anti-SIRP antibodies on human SIRPg recombinant protein. SIRPg-His recombinant protein was immobilized onto a NINTA biosensor and the indicated antibodies were added at 10 μg/ml. […] (B) Binding analysis by ELISA assay of anti-SIRP antibodies on SIRPg (human SIRPg-His coating and anti-human kappa detection).
(§4) Method: This method was performed with a Blitz (Forte Bio; USA; reference C22-2 No 61010-1). Recombinant hSIRPg-His (Sino Biologicals, Beijing, China; reference 11828-H08H) was immobilized at 10 μg/ml by histidine tail into a Ni-NTA biosensor (Forte Bio; USA; reference 18-0029) for 30 seconds. Then, an anti-SIRPa antibody was associated at 20 μg/mL for 120 seconds. The dissociation of anti-SIRPa antibody was made in kinetics buffer for 120 seconds. Analysis of data was made with the Blitz pro 1.2 software, which calculated association constant (ka) and dissociation constant (kd) and determined the affinity constant KD […].

[5] = target: T1, recombinant hSIRPa (Sino Biologicals, …); experiment: SPR (Biacore); SIRPa-His immobilized on CM5 chip, antibody injected
Method: FIG. 2. Affinity analysis by Biacore of anti-SIRP antibodies on human SIRPa recombinant protein. SIRPa-His recombinant protein was immobilized onto a CM5 chip at 5 μg/ml (500 RU) and the indicated antibodies were added at different concentration.
Method: Recombinant hSIRPa (Sino Biologicals, Beijing, China; reference 11612-H08H) was immobilized into a CM5 sensor chip (GeHealthcare; France) at 5 μg/ml (500 RU) and antibodies were applied at different concentrations with a flow rate of 40 μl/min. Analysis was performed with a BIAcore 3000 (Biacore, GeHealthcare).

[6] = target: T1, recombinant hSIRPa (Sino Biologicals, …); experiment: ELISA on immobilized hSIRPa-His, anti-human IgG detection, first experiment; first experiment
Method: as §2

[7] = target: T1, recombinant hSIRPa (Sino Biologicals, …); experiment: ELISA on immobilized hSIRPa-His, anti-human IgG detection, third experiment
Method: as §2

[8] = target: T3, recombinant hSIRPb-His (Antibodies-online, reference ABIN3077231) (human, UniProt Q5TFQ8 30-371); experiment: BLI (Blitz); SIRPb-His on Ni-NTA biosensor, antibody at 20 ug/ml [B, table A]
T3 construct: also called SIRPb-His (Blitz); not shown: His tag
Method: as §3, with “7.” for “8.”, “SIRPb” for “SIRPg”, “SIRPb-His” for “SIRPg-His”, “20” for “10”, “analysis” for “analysis by ELISA assay”, “antibodies” for “antibodies on SIRPg”
as §4, with “hSIRPb-His (Antibodies-online; USA;” for “hSIRPg-His (Sino Biologicals, Beijing, China;”, “ABIN3077231)” for “11828-H08H)”

CTLA4-Fc = target: T4, CTLA4-Fc (human, UniProt P16410 36-161, limits assumed); experiment: ELISA: modified antibody (concentration on the axis) captured on SIRPa-His, then CTLA4-Fc, detected with mouse anti-human CTLA4 [panel CD86]
T4 construct: not shown: Fc; not specified
Text: (§5) FIG. 24. Ligand binding assay with the different modified anti-SIRPa antibodies by ELISA.

[9] = target: T1, recombinant hSIRPa (Sino Biologicals, …); experiment: ELISA on immobilized SIRPa-His, peroxidase anti-human IgG, DO 450nm [panel CD86]
Method: (§6) Method: For ELISA assay, recombinant hSIRPa (Sino Biologicals, Beijing, China; reference 11612-H08H) was immobilized on plastic at 0.5 μg/ml in carbonate buffer (pH9.2) and different modified anti-SIRPa antibodies were added to measure binding to SIRPa.

[10] = target: T1, recombinant hSIRPa (Sino Biologicals, …); experiment: competition ELISA on coated SIRPa-His; competitor biotinylated CD47-Fc at 6 ug/ml, streptavidin-peroxidase [panel CD86]
Method: as §1

[11] = target: T1, recombinant hSIRPa (Sino Biologicals, …); experiment: ELISA on immobilized SIRPa-His, peroxidase anti-human IgG, DO 450nm [panel OX40L]
Method: as §6

OX40Fc = target: T5, OX40Fc (human, UniProt P43489 29-216); experiment: ELISA: modified antibody (concentration on the axis) captured on SIRPa-His, then OX40Fc, detected with mouse anti-human OX40 [panel OX40L]
T5 construct: not shown: Fc; not specified
T5 sequence (looked up): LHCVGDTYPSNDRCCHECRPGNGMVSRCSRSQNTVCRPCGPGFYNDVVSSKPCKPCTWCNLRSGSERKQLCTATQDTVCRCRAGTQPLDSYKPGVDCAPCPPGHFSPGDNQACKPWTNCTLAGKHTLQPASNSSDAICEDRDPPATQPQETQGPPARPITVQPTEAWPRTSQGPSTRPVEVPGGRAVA
Text: as §5

B1: HELA (antibody, V domains shown)
VH: EVQLVQSGAEVKKPGESLRISCKASGYSFTSYWVHWVRQMPGKGLEWMGNIDPSDSDTHYSPSFQGHVTLSVDKSISTAYLQLSSLKASDTAMYYCVRGGTGTLAWFAYWGQGTLVTVSS
VL: DVVMTQSPLSLPVTLGQPASISCRSSQSLVHSYGNTYLYWYQQRPGQSPRLLIYRVSNRFSGVPDRFSGSGSGTDFTLKISRVEAEDVGVYFCFQGTHVPYTFGGGTKVEIK
notes: also called humanized 18D5 variant HELA
EC50 [1]: 4.61 ng/mL

B2: chimeric mouse/human 18D5 antibody (antibody, human IgG4 S228P, kappa)
heavy: not shown
light: DVVMTQTPLSLPVSLGDQASISCRSSQSLVHSYGNTYLYWYLQKPGQSPKLLIYRVSNRFSGVPDRFSGSGSGTDFTLKISRVEAEDLGVYFCFQGTHVPYTFGSGTKLEIKRTVAAPSVFIFPPSDEQLKSGTASVVCLLNNFYPREAKVQWKVDNALQSGNSQESVTEQDSKDSTYSLSSTLTLSKADYEKHKVYACEVTHQGLSSPVTKSFNRGEC
notes: mouse variable domains on human IgG4m (S228P) / kappa constant domains; also called chimeric antibody; chimeric 18D5
IC50 [2]: 304 ng/mL
EC50 [3]: 4.06 ng/mL
Kd [4]: 64.8 nM
koff [4]: 0.00319 s⁻¹
kon [4]: 49300 M⁻¹ s⁻¹
Kd [5]: 0.344 nM
koff [5]: 5.14e-05 s⁻¹
kon [5]: 149000 M⁻¹ s⁻¹
EC50 [6]: 2.9 ng/mL
EC50 [7]: 2.74 ng/mL
Kd [8]: 15.7 nM
koff [8]: 0.00138 s⁻¹
kon [8]: 88400 M⁻¹ s⁻¹

B3: modified anti-SIRPa HEFLB antibody with ECD of CD86 on the heavy chain (antibody, human IgG4 S228P, kappa)
heavy: not shown
light: DVVMTQSPLSLPVTLGQPASISCRSSQSLVHSYGNTYLYWFQQRPGQSPRLLIYRVSNRFSGVPDRFSGSGSGTDFTLKISRVEAEDVGVYYCFQGTHVPYTFGGGTKVEIKRTVAAPSVFIFPPSDEQLKSGTASVVCLLNNFYPREAKVQWKVDNALQSGNSQESVTEQDSKDSTYSLSSTLTLSKADYEKHKVYACEVTHQGLSSPVTKSFNRGEC
notes: as m25, ECD of CD86; also called VHprot+VL (CD86); VH-CD86
binding result (CTLA4-Fc): binds
EC50 (read off the curve) [9]: ~9 ng/mL
IC50 (read off the curve) [10]: ~200 ng/mL

B4: modified anti-SIRPa HEFLB antibody with ECD of CD86 on the light chain (antibody, human IgG4 S228P, kappa)
heavy: not shown
light: DVVMTQSPLSLPVTLGQPASISCRSSQSLVHSYGNTYLYWFQQRPGQSPRLLIYRVSNRFSGVPDRFSGSGSGTDFTLKISRVEAEDVGVYYCFQGTHVPYTFGGGTKVEIKRTVAAPSVFIFPPSDEQLKSGTASVVCLLNNFYPREAKVQWKVDNALQSGNSQESVTEQDSKDSTYSLSSTLTLSKADYEKHKVYACEVTHQGLSSPVTKSFNRGECGGGGSGGGGSGGGGSAPLKIQAYFNETADLPCQFANSQNQSLSELVVFWQDQENLVLNEVYLGKEKFDSVHSKYMGRTSFDSDSWTLRLHNLQIKDKGLYQCIIHHKKPTGMIRIHQMNSELSVLANFSQPEIVPISNITENVYINLTCSSIHGYPEPKKMSVLLRTKNSTIEYDGVMQKSQDNVTELYDVSISLSVSFPDVTSNMTIFCILETDKTRLLSSPFSIELEDPQPPPDH
notes: as m32, ECD of CD86; also called VH+VLprot (CD86); HEF + LB-CD86
binding result (CTLA4-Fc): binds
EC50 (read off the curve) [9]: ~8 ng/mL
IC50 (read off the curve) [10]: ~200 ng/mL

B5: modified anti-SIRPa HEFLB antibody with ECD of OX40L on the heavy chain (antibody, human IgG4 S228P, kappa)
heavy: not shown
light: B3 light
notes: as m25, ECD of OX40L; also called VHprot+VL (OX40L); HEF-OX40L + LB
binding result [11]: binds
binding result (OX40Fc): binds

B6: modified anti-SIRPa HEFLB antibody with ECD of OX40L on the light chain (antibody, human IgG4 S228P, kappa)
heavy: not shown
light: DVVMTQSPLSLPVTLGQPASISCRSSQSLVHSYGNTYLYWFQQRPGQSPRLLIYRVSNRFSGVPDRFSGSGSGTDFTLKISRVEAEDVGVYYCFQGTHVPYTFGGGTKVEIKRTVAAPSVFIFPPSDEQLKSGTASVVCLLNNFYPREAKVQWKVDNALQSGNSQESVTEQDSKDSTYSLSSTLTLSKADYEKHKVYACEVTHQGLSSPVTKSFNRGECGGGGSGGGGSGGGGSQVSHRYPRIQSIKVQFTEYKKEKGFILTSQKEDEIMKVQNNSVIINCDGFYLISLKGYFSQEVNISLHYQKDEEPLFQLKKVRSVNSLMVASLTYKDKVYLNVTTDNTSLDDFHVNGGELILIHQNPGEFCVL
notes: as m32, ECD of OX40L; also called VH+VLprot (OX40L); HEF + LB-OX40L
binding result [11]: binds
binding result (OX40Fc): binds

B7: HCLA (antibody, human IgG4 S228P, kappa, V domains shown)
VH: B1 VH with L104M
VL: DVVMTQSPLSLPVTLGQPASISCRSSQSLVHSYGNTYLYWYQQRPGQSPRLLIYRVSNRFSGVPDRFSGSGSGTDFTLKISRVEAEDVGVYFCFQGTHVPYTFGGGTKVEIKR
notes: humanized 18D5 variant; also called humanized 18D5 variant HCLA
EC50 [3]: 5.6 ng/mL
